These results are taken from the supplement of paper PMC9170038.

For the data set, the system named is MS2 coat protein. Nature of the data set: apparent KD of MS2 coat protein; designed switch direction (-1 OFF switch, 1 ON switch): 1; higher = weaker reporter binding. An outline of the steps: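 The apparent KD reported per design is the median over clusters of curve fits to normalised cluster fluorescence. The RNA switches were transcribed on Illumina chips by stalled E. coli RNA polymerase. SNAP-549-labelled MS2 coat protein was titrated from 0.7 or 1.5 nM, doubling up to 3 µM, in Tris-HCl pH 7.5 buffer containing KCl, MgCl2, BSA, DTT, tRNA and Tween-20, with no input, 200 uM small-molecule ligand, or an oligonucleotide input.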

[1] abbreviates: Eterna round: R95, input ligand: FMN 200 uM.
The mark [2] stands for this setting: Eterna round: R95, input ligand: microRNA oligo, concentration not stated.
[3] abbreviates: Eterna round: R95, input ligand: none.
The mark [4] stands for this setting: input ligand: microRNA oligo, concentration not stated.

With “AUAAGGCAAGCUUUUUUCUCGUUGUGUAAACAUGAGGAUCACCCAUGUGCUCGCCCUGGAUCUUUGGAUCGCAGAAA [Rarisooron] (puzzle: Sensor for hsa-mir-208a)”, the “apparent KD of MS2 coat protein” value is, setting by setting: under setting [1], 104 nM; under setting [2], 33.6 nM; under setting [3], 119 nM.

Take “GUUAACUUGAGAGGAUAUGUAGAGGAUCACCCUACAGAAGGCUCUUUGGAGAGGAUAUGUAGAGGAUCACCCUACAGAAGGCUC [pwkr ssNG DX.6] (Eterna round: R96, puzzle: Same State NG 1)”: the “apparent KD of MS2 coat protein” value is 56.5 nM (input ligand: FMN 200 uM), 33.7 nM under setting [4] and 25.9 nM (input ligand: none).

Consider “AAACACAUGAGGAUCACCCAUGUAGCGCCAUUGAGGCGCACAUAGGAUAUCCGGUCCAAAAGACCGGAGAAGGGUGAAAGAAAA [Soesen] (Eterna round: R96, puzzle: Same State NG 3)”, for which the “apparent KD of MS2 coat protein” value was determined as 125 nM (input ligand: FMN 200 uM), 166 nM under setting [4] and 146 nM (input ligand: none).

In the case of “UGUUUGUUGUGAGGAUAUACAUACACCUUACAUGAGGAUCACCCAUGUUGUUACUUUGAUAGUUAGUAGAAGGCACUUGGUUAU [JR_SSNG2_Sub047] (Eterna round: R96, puzzle: Same State NG 2)”, the “apparent KD of MS2 coat protein” value worked out at 94.9 nM (input ligand: FMN 200 uM), 91.6 nM under setting [4] and 140 nM (input ligand: none).

Regarding “UUUAGUUGCGGGCAGGAUAUGUAUUAAAGUACAUGAGGAUCACCCAUGUGCGGGUAUAACACCCGACAGAAGGGCCAAUCGCGAC [Laonerce - 1] (puzzle: Same State 2)”, the “apparent KD of MS2 coat protein” value reads like this: under setting [1], 17.7 nM; under setting [2], 64.3 nM; under setting [3], 115 nM.

In the case of “CAUCUAUACUUAGGAUAUGUAGGAUAUGCCUACAUGAGGAUCACCCAUGUUCGCAUGGCAGAAGGACAGAAGGAAGAACUACUU [pwkr ssNG2 2FMN + 1F5.5] (Eterna round: R96, puzzle: Same State NG 2)”, the “apparent KD of MS2 coat protein” value by setting is: (input ligand: FMN 200 uM) 94.3 nM; under setting [4], 57.3 nM; (input ligand: none) 266 nM.

As for “GUAGCAUACCGAGGAUAUUCAUAUUAUAACAUGAGGAUCACCCAUGUUGGCCGAUUACGGCCUUGGGAGAAGGCGGAAUGCUAC [Xeonanis - 20 Mod18] (Eterna round: R96, puzzle: Same State NG 2)”, the “apparent KD of MS2 coat protein” value is, setting by setting: (input ligand: FMN 200 uM) 15.8 nM; under setting [4], 74.1 nM; (input ligand: none) 84.3 nM.

Consider “GGCAGACAUGAGGAUCACCCAUGUCGGCCGUUAGGAGGAUAUCGGUGAUAUCUGUCUCGCCGAGAAGGUUUAAUUA [Onaterleza] (puzzle: Same State 1)”, for which, under setting [2], the “apparent KD of MS2 coat protein” value was determined as 9.71 nM.

As to “UGGCUCAGACGAGGAUAUGAUCAUGGCGCUUCGGCGCAUACAUGAGGAUCACCCAUGUAGGGUGAUCAGAAGGUGUCUGAGCCA [SSNG2/8-B2] (Eterna round: R96, puzzle: Same State NG 2)”, the “apparent KD of MS2 coat protein” value stood at 90.9 nM (input ligand: FMN 200 uM), 578 nM under setting [4] and 1000 nM (input ligand: none).

For “GCGAAGAGGUAAGGAUAUGCAUGGCGUAGACAUGAGGAUCACCCAUGUAGGAGACGAAUUAGAAGGGAGAAGGUACCAGGACGC [AK SSNG2-V2-17.1] (Eterna round: R96, puzzle: Same State NG 2)”, the “apparent KD of MS2 coat protein” value is, setting by setting: (input ligand: FMN 200 uM) 939 nM; under setting [4], 699 nM; (input ligand: none) 746 nM.

As to “CCGUAGAUGGUAGGAUAUGGAGCCUUAUUGGCUCCAGAAGGAUCGAAACAUGAGGAUCACCCAUGUUCGGCGGUCAAUAGACCG [Eli NG1ss - 85] (Eterna round: R96, puzzle: Same State NG 1)”, the “apparent KD of MS2 coat protein” value turned out to be 22.5 nM (input ligand: FMN 200 uM), 17.6 nM under setting [4] and 23.9 nM (input ligand: none).

For “ACAUGAGGAUCACCCAUGUAUAGAAUUGAAUGUUAAGAUACGUAGGAUAUCGAGAUUAGUAUGAUCGAGAAGGACGAUUAGAUA [JR_SSNG3_Sub064] (Eterna round: R96, puzzle: Same State NG 3)”, the “apparent KD of MS2 coat protein” value was determined as 12.6 nM (input ligand: FMN 200 uM), 16.6 nM under setting [4] and 20.3 nM (input ligand: none).

For the sequence “GAGUGGCAGUUAGGAUAUAUAGUGAUAAUCACAAUAGAAGGAACAGACAUGAGGAUCACCCAUGUAGGACUAAUCCAGAGAGAG [Parity 37 - Jieux - Same State NG 1] (Eterna round: R96, puzzle: Same State NG 1)”, the “apparent KD of MS2 coat protein” value reads like this: (input ligand: FMN 200 uM) 19.2 nM; under setting [4], 16.4 nM; (input ligand: none) 23.4 nM.

Regarding “UGUUGUAUUACAGGAUAUCUAUUGUUUUGAUUUAGAGAAGGGUAUUCACAUGAGGAUCACCCAUGUAUAUACGAGGAAGUUGUG [JMF's solution 77] (Eterna round: R96, puzzle: Same State NG 1)”, the “apparent KD of MS2 coat protein” value (input ligand: FMN 200 uM) was 64.1 nM, the “apparent KD of MS2 coat protein” value under setting [4] came out at 40.3 nM and the “apparent KD of MS2 coat protein” value (input ligand: none) turned out to be 50.6 nM.

As for “UGGCUGAGUCGAGGAUAUGAUCUUCAUAUAUAUACAUGAGGAUCACCCAUGUAUAAUUACAUGGAUCAGAAGGCGACUCAGCCU [SSNG2/13-A2] (Eterna round: R96, puzzle: Same State NG 2)”, under setting [4], the “apparent KD of MS2 coat protein” value turned out to be 23 nM.

Turning to “AAGAUGCUCGUAGGAUAUUGGAAAGGAAGUGUACAAGAAGGACGGUGUCACAUGAGGAUCACCCAUGUUACAGUCUAAUGACUG [PowerStrip SSNG 1.1] (Eterna round: R96, puzzle: Same State NG 1)”, the “apparent KD of MS2 coat protein” value by setting is: (input ligand: FMN 200 uM) 18.7 nM; under setting [4], 53.5 nM; (input ligand: none) 61.4 nM.

Take “GCUAGAAAUAAAGCCAACAUGAGGAUCACCCAUGUAUGUUGGUAGGAUAUCGUAUGCAAAGCAUACGAGAAGGGCCAAACUAGC [Mat - Same State NG 3 - JL Mod - D21] (Eterna round: R96, puzzle: Same State NG 3)”: the “apparent KD of MS2 coat protein” value stood at 72.3 nM (input ligand: FMN 200 uM), 65.4 nM under setting [4] and 122 nM (input ligand: none).

As for “GUAGCAUACCGAGGAUAUUCAUAUAAUAAAUAACAUGAGGAUCACCCAUGUUGGCGAAAGCCUUGGGAGAAGGCGGAAUGCUAC [Xeonanis - 20 Mod56] (Eterna round: R96, puzzle: Same State NG 2)”, the “apparent KD of MS2 coat protein” value (input ligand: FMN 200 uM) came to 13.5 nM, the “apparent KD of MS2 coat protein” value under setting [4] worked out at 45.8 nM and the “apparent KD of MS2 coat protein” value (input ligand: none) was 55.5 nM.

As for “GGUGUACAUGAGGAUCACCCAUGUCGACCGCUCACAGGAUAUUUAAUACAAACUGGUAGCGGAGAAGGGUGAGGAA [Oresbeve] (Eterna round: R96, puzzle: Same State 1)”, the “apparent KD of MS2 coat protein” value runs as follows: (input ligand: FMN 200 uM) 523 nM; under setting [4], 160 nM; (input ligand: none) 188 nM.

Consider “GUGGUCAGACAUGAGGAUCACCCAUGUGGAAUAAAUAAGGAAAAGGAUAUUCAAUAUAGGAUAUAGAAGAAGGUUUGGUUGGUG (Eterna round: R96, puzzle: Same State NG 3)”, for which, under setting [4], the “apparent KD of MS2 coat protein” value was 73.5 nM.

As for “GUAGCAUACCGAGGAUAUUCAUAUACAUGAGGAUCACCCAUGUUGGCCAGCAUUAGCUGGCCUUGGGAGAAGGCGGAAUGCUAC [Xeonanis - 20 Mod50] (Eterna round: R96, puzzle: Same State NG 2)”, the “apparent KD of MS2 coat protein” value came out at 18.9 nM (input ligand: FMN 200 uM), 79.4 nM under setting [4] and 141 nM (input ligand: none).

Consider “GGUCCAUCAUGAGGAUAUGGCACCUUAUUGGUGCCAGAAGGCAUGUCUAUGACAUGAGGAUCACCCAUGUAAAUAAAUUGGACC [Eli NG1ss - 94] (Eterna round: R96, puzzle: Same State NG 1)”, for which the “apparent KD of MS2 coat protein” value (input ligand: FMN 200 uM) worked out at 32.3 nM, the “apparent KD of MS2 coat protein” value under setting [4] is 243 nM and the “apparent KD of MS2 coat protein” value (input ligand: none) was 232 nM.

Regarding “GGAGCCGGUACUGAGGAUAUUCGUAUUAAAACAUGAGGAUCACCCAUGUAGGCCAGAAGGCCUUGGGAGAAGGCAGAUCGGCUCC [Biseusra - 1] (puzzle: Same State 2)”, the “apparent KD of MS2 coat protein” value under setting [1] is 13.2 nM, the “apparent KD of MS2 coat protein” value under setting [2] amounted to 36 nM and the “apparent KD of MS2 coat protein” value under setting [3] amounted to 48.3 nM.

“UGGCUCAGAGCAGGAUAUAUGUAAUAACAUGAGGAUCACCCAUGUGUCGAGCUUCGGCUCGACACAUAGAAGGGCUCUGAGCCA [SSNG2/2-B2] (Eterna round: R96, puzzle: Same State NG 2)”: the “apparent KD of MS2 coat protein” value runs as follows: (input ligand: FMN 200 uM) 13.3 nM; under setting [4], 29.2 nM; (input ligand: none) 40.9 nM.

With “GGAUCCGGCACUGAGGAUAUUCAUAUUUAAACAUGAGGAUCACCCAUGUAGGCCAGAAGGCCUUGGGAGAAGGCAGGUCGGCUCG [salish99_ss2_r3_082] (puzzle: Same State 2)”, the “apparent KD of MS2 coat protein” value is 27.6 nM under setting [1], 268 nM under setting [2] and 484 nM under setting [3].

For the sequence “UGCAUACAUGAGGAUCACCCAUGUCAACGUAGUCGAGGAUAUGGGCAGCCGUGAGGCGUACCAGAAGGCGAAGAGG [JL-ss1-3.04 ViennaUCT mod] (puzzle: Same State 1)”, the “apparent KD of MS2 coat protein” value is 28.7 nM under setting [1], 62.2 nM under setting [2] and 77.9 nM under setting [3].

Turning to “AAACUCGUUGAAGGAUAUCCGGCAGCUAACAAACCGUAACAUGAGGAUCACCCAUGUGUUAGAAAGGAGAAGGUCAGUGACCGG [Eternabot solution 34] (Eterna round: R96, puzzle: Same State NG 2)”, the “apparent KD of MS2 coat protein” value was 17.2 nM (input ligand: FMN 200 uM), 15.9 nM under setting [4] and 22.3 nM (input ligand: none).

Regarding “GUACAGAUCAGAGGAUAUCACGUCGUUUAGACGUGAGAAGGCUGAUCACACAUGAAUAUUAGUACAUGAGGAUCACCCAUGUAC [SSNG1/15-A3] (Eterna round: R96, puzzle: Same State NG 1)”, the “apparent KD of MS2 coat protein” value by setting is: (input ligand: FMN 200 uM) 13.7 nM; under setting [4], 13.4 nM; (input ligand: none) 17.5 nM.
